Target: the molecule itself
Test: SEC; Superdex 200 10/300 GL; protein dialysed in 20 mM HEPES pH 7.5, 50 mM NaCl, 10 mM β-mercaptoethanol, 10% glycerol, about 2 mg/ml; size by comparison with a standard curve

B1: StrepII-MYRF-319:577, the N-terminal fragment from the auto-processing of StrepII-MYRF-319:708-10xHis (domain or fragment, human, UniProt Q9Y2G1-2 319-577, looked up)
chain: PSPGLLQDSDSLSGSYLDPNYQSIKWQPHQQNKWATLYDANYKELPMLTYRVDADKGFNFSVGDDAFVCQKKNHFQVTVYIGMLGEPKYVKTPEGLKPLDCFYLKLHGVKLEALNQSINIEQSQSDRSKRPFNPVTVNLPPEQVTKVTVGRLHFSETTANNMRKKGKPNPDQRYFMLVVALQAHAQNQNYTLAAQISERIIVRASNPGQFESDSDVLWQRAQVPDTVFHHGRVGINTDRPDEALVVHGNVKVMGSLMHP
notes: Myelin regulatory factor MYRF (C11orf9), human, 1111-amino-acid-long isoform; numbers count on: the 1111-amino-acid isoform (NP_037411); Cloned in pET52b between BamHI and SacI; The C-terminal 10xHis stays on the other cleavage product; also called N-terminal fragment of MYRF-319:708; source: E. coli BL21 Star (DE3) pLysS, cut product of StrepII-MYRF-319:708-10xHis, purified (Ni-NTA flow-through, …)
  stoichiometry N: 3

— article PMC3742443, “A Bacteriophage Tailspike Domain Promotes Self-Cleavage of a Human Membrane-Bound Transcription Factor, the Myelin Regulatory Factor MYRF” (PLoS Biology, 2013)
